According to patent US20250313635A1 (Merck Sharp & Dohme, published 2025):
Substitutions are numbered along the chain they refer to.

B1: Ab-31 (antibody, V domains shown)
VH: EVQLQESGPGLVKPSETLSLTCAVSGYSISSGYYWGWIRQPPGKGLEWIGSIYHSGNTYYNPSLKSRVTISVDTSKNQFSLKLSSVTAADTAVYYCARVPRYSRGDAYYYYGMDVWGQGTTVTVSS
VL: DIQMTQSPSTLSASVGDRVTITCRASQSIGSWLAWYQQKPGKAPKLLIYKASSLESGVPSRFSGSGSGTEFTLTISSLQPDDFATYYCQQSGPYPWTFGGGTKVEIK
B2: Ab-32 (antibody, V domains shown)
VH: B1 VH
VL: EIVLTQSPGTLSLSPGERATLSCRASQSVRSSYLAWYQQKPGQAPRLLIYGASSRATGIPDRFSGSGSGTDFTLTISRLEPEDFAVYYCQQAGLVFTFGGGTKVEIK
B3: Ab-30 (antibody, V domains shown)
VH: B1 VH
VL: DIQMTQSPSTLSASVGDRVTITCRASQSISSWLAWYQQKPGKAPKLLIYKASSLESGVPSRFSGSGSGTEFTLTISSLQPDDFATYYCQQVKIYPPYTFGGGTKVEIK
B4: Ab-33 (antibody, V domains shown)
VH: EVQLVQSGAEVKKPGSSVKVSCKASGGTFSNYAISWVRQAPGQGLEWMGGIIPIFGTANYAQKFQGRVTITADESTSTAYMELSSLRSEDTAVYYCARAPRSARGDMYYYYYGMDVWGQGTTVTVSS
VL: B1 VL with S91Y, P93R
B5: Ab-29 (antibody, V domains shown)
VH: ELQLQESGPGLVKPSETLSLTCTVSGGSISSNSYYWGWIRQPPGKGLEWIGSIYYSGSTYYNPSLKSRVTISVDTSKNQFSLKLSSVTAADTAVYYCARVRRVAGRGDSYYYYYGMDVWGQGTTVTVSS
VL: DIQMTQSPSSVSASVGDRVTITCRASQGISRWLAWYQQKPGKAPKLLIYAASSLQSGVPSRFSGSGSGTDFTLTISSLQPEDFATYYCQQAISHPWTFGGGTKVEIK

Key:
[1] = target: T1, recombinant mouse αvβ6 integrin extracellular domains (mouse, UniProt P43406 1-988; Q9Z0T9 1-706, Biotinylated on the Avitag (tag not in the letters); interchain disulfide between the coiled-coils (not in the letters).); experiment: ForteBio Octet Red (BLI)
T1 construct: Soluble heterodimer co-expressed in Expi293 cells; also called mαvβ6

[2] = target: T2, recombinant human αvβ1 integrin extracellular domains (human, UniProt P06756 1-992; P05556 1-728, Secreted glycoprotein heterodimer. It is biotinylated on the omitted Avitag, and an interchain disulfide sits in the omitted coiled-coils.); experiment: ForteBio Octet Red (BLI)
T2 construct: Soluble heterodimer co-expressed in Expi293 cells; also called hαvβ1; not shown: Alpha chain: acidic coiled-coil with cysteine and GG-Avitag; Beta chain: basic coiled-coil with cysteine and GG-Avitag

[3] = target: T3, recombinant human αvβ3 integrin extracellular domains (human, UniProt P06756 1-992; P05106 1-718, Secreted glycoprotein heterodimer. It is biotinylated on the omitted Avitag, and an interchain disulfide sits in the omitted coiled-coils.); experiment: ForteBio Octet Red (BLI)
T3 construct: Soluble heterodimer co-expressed in Expi293 cells; also called hαvβ3; not shown: Alpha chain: acidic coiled-coil with cysteine and GG-Avitag; Beta chain: basic coiled-coil with cysteine and GG-Avitag

[4] = target: T4, recombinant human α5β1 integrin extracellular domains (human, UniProt P08648 1-995; P05556 1-728, Biotinylated on the Avitag (tag not in the letters); interchain disulfide between the coiled-coils (not in the letters).); experiment: AlphaLISA blocking of human fibronectin binding
T4 construct: Soluble heterodimer co-expressed in Expi293 cells; also called hα5β1

[5] = target: T2, recombinant human αvβ1 integrin …; experiment: AlphaLISA blocking of human fibronectin binding
[6] = target: T5, recombinant mouse αvβ1 integrin extracellular domains (mouse, UniProt P43406 1-988; P09055 1-728, Biotinylated on the Avitag (tag not in the letters); interchain disulfide between the coiled-coils (not in the letters).); experiment: AlphaLISA blocking of mouse fibronectin binding
T5 construct: Soluble heterodimer co-expressed in Expi293 cells; also called mαvβ1
Experimental: (§1) Briefly, the testing antibody (8 μL) was added as a 4×(of Final testing concentration) solution in the HEPES buffer described previously into a 384w AlphaPlate™ (Perkin Elmer #6005350). Then the integrin and ligand were added sequentially as 8×(4 μL each). Plates were sealed and incubated at room temperature for two hours. Then 4×acceptor bead solution ([…]) was added, and the plates were resealed and incubated at room temperature (RT) for one hour. Finally, 4×([…]) donor beads solution was added in a darkened room and incubated for 45 minutes at room temperature. Plates were read on the Envision (Perkin Elmer) in AlphaScreen™ mode within three hours of donor bead addition.

[7] = target: T6, recombinant mouse αvβ3 integrin extracellular domains (mouse, UniProt P43406 1-988; O54890 1-717, Biotinylated on the Avitag (tag not in the letters); interchain disulfide between the coiled-coils (not in the letters).); experiment: AlphaLISA blocking of mouse vitronectin binding
T6 construct: Soluble heterodimer co-expressed in Expi293 cells; also called mαvβ3
Experimental: as §1

[8] = target: T7, human αvβ1 integrin on CHOK1 stable cells (human, UniProt P06756 31-1048; P05556 21-798); experiment: cell-based ELISA (CELISA), CHOK1 cells expressing the integrin
T7 construct: whole, on cells; Stably expressed on CHOK1 cells; also called hαvβ1; CHOK1-human αvβ1
Experimental: (§2) Integrin cell-based ELISA (CELISA) assay. Cell binding EC₅₀ data for antibodies were obtained for CHOK1 parental cells and CHOK1 cells expressing human or mouse αvβ1, αvβ6, and αvβ1 integrins by cell-based ELISA. Three days prior to the assay cells were seeded at 10,000 cells per well in 100 μL/well of media in Falcon 96-well Flat-Bottom Tissue Culture Plates (REF 353916), resulting in an even cell monolayer in each well on the day of the assay. On the day of the assay, media was removed from the cells and a fivefold titration of primary antibodies was added at concentrations ranging from 0 to 200 nM in TBSF+MnCl₂ buffer (25 mM Tris, 0.15 M NaCl, 0.1% BSA, 0.5 mM MnCl₂, pH 7.5). Cells incubated with primary antibody solution for 1 hour at room temperature. […] After 30 minutes of incubation at room temperature, secondary antibody was removed, and cells were washed twice with 150 μL/well of 1×DPBS+Tween 20. Then 50 μL/well of TMB substrate (1-Step Ultra TMB-ELISA, Thermo Scientific, #34028) was added, incubated with cells at room temperature, and 50 μL/well of TMB stop solution (Seracare, #KPL 50-85-05) was then added after five minutes. Absorbance was read on a TECAN plate reader at 450 nm, with a 620 nm reference wavelength.

[9] = target: T8, human αvβ6 integrin on CHOK1 stable cells (human, UniProt P06756 31-1048; P18564 22-788); experiment: as above
T8 construct: whole, on cells; Stably expressed on CHOK1 cells; also called hαvβ6; CHOK1-human αvβ6
Experimental: as §2

[10] = target: T9, human α5β1 integrin on CHOK1 stable cells (human, UniProt P08648 42-1049; P05556 21-798); experiment: as above
T9 construct: whole, on cells; Stably expressed on CHOK1 cells; also called hα5β1; CHOK1-human α5β1
Experimental: as §2

[11] = target: T10, mouse αvβ1 integrin on CHOK1 stable cells (mouse, UniProt P43406 31-1044; P09055 21-798); experiment: as above
T10 construct: whole, on cells; Stably expressed on CHOK1 cells; the adhesion assay used the line with the hamster α5 gene knocked out (CHOK1-α5KO-mαvβ1); also called mαvβ1; CHOK1-mouse αvβ1
Experimental: as §2

[12] = target: T11, mouse αvβ6 integrin on CHOK1 stable cells (mouse, UniProt P43406 31-1044; Q9Z0T9 22-787); experiment: as above
T11 construct: whole, on cells; Stably expressed on CHOK1 cells; also called mαvβ6; CHOK1-mouse αvβ6
Experimental: as §2

[13] = target: T12, mouse α5β1 integrin on CHOK1 stable cells (mouse, UniProt P11688 45-1053; P09055 21-798); experiment: as above
T12 construct: whole, on cells; Stably expressed on CHOK1 cells; also called mα5β1; CHOK1-mouse α5β1
Experimental: as §2

T1 sequence (P43406 31-988 limits assumed, form in doubt, chain 1 of 2): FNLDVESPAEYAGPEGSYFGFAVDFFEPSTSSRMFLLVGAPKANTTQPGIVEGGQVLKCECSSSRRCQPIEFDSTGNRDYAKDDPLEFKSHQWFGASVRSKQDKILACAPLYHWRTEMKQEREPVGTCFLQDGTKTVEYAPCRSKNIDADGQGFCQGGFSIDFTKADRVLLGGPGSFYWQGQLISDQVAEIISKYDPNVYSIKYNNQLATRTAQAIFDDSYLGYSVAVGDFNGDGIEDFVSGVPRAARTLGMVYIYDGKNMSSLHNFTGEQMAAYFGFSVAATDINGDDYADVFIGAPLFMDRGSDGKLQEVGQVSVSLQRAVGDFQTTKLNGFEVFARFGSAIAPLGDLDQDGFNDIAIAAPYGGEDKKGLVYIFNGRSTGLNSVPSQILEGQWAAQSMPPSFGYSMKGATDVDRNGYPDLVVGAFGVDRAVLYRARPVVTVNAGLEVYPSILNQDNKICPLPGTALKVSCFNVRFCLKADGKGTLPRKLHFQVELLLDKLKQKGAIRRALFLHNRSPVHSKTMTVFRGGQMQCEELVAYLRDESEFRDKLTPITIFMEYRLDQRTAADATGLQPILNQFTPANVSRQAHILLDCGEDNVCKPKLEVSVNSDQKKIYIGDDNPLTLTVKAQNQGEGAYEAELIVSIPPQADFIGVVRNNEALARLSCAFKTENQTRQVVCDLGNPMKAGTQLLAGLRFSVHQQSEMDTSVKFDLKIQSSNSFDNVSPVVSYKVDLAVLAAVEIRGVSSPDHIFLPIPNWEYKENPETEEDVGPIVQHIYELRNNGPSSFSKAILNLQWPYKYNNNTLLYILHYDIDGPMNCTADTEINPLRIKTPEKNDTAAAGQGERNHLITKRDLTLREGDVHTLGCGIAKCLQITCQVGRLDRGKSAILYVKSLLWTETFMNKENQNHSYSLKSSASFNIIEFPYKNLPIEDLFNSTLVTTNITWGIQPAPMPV
T1 sequence (Q9Z0T9 22-706 limits assumed, form in doubt, chain 2 of 2): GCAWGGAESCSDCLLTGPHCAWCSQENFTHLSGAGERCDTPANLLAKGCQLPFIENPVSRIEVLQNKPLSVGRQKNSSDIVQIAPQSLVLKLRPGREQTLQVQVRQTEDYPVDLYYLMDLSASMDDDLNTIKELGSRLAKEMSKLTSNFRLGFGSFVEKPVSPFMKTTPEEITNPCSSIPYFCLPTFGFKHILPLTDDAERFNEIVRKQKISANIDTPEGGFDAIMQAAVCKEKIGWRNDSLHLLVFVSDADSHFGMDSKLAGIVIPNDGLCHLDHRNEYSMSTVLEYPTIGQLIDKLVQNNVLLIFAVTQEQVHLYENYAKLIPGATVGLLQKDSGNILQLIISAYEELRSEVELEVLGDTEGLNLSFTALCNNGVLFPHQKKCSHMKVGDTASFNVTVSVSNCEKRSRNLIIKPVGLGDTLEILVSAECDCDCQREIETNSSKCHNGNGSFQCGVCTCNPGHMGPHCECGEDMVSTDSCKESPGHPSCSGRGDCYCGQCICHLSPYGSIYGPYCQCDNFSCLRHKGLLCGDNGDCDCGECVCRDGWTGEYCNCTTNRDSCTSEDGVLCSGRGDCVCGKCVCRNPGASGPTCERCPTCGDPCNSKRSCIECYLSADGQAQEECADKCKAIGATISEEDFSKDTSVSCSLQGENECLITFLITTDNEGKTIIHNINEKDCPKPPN
T5 sequence (P43406 31-988 limits assumed, form in doubt, chain 1 of 2): as the sequence (P43406 31-988 limits assumed, form in doubt, chain 1 of 2) above
T5 sequence (P09055 21-728 limits assumed, form in doubt, chain 2 of 2): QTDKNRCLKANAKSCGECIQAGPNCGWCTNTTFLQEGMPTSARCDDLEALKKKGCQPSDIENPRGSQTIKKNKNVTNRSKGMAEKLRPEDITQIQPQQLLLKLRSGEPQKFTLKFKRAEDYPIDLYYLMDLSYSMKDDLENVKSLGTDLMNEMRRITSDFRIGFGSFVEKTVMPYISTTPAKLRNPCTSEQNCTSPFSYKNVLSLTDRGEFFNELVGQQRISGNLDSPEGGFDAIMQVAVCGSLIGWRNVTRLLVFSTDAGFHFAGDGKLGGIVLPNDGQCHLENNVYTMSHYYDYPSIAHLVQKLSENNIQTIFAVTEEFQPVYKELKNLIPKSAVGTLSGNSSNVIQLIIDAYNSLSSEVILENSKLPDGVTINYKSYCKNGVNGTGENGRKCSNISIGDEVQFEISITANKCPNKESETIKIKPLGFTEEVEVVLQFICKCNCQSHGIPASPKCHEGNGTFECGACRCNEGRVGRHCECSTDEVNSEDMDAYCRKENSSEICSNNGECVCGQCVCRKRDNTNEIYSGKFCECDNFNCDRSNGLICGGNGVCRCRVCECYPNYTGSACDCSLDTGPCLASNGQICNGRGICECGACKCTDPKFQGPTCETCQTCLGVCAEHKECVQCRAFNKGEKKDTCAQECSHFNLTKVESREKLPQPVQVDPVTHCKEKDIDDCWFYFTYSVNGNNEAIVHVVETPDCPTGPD
T6 sequence (P43406 31-988 limits assumed, form in doubt, chain 1 of 2): as the sequence (P43406 31-988 limits assumed, form in doubt, chain 1 of 2) above
T6 sequence (O54890 26-717 limits assumed, form in doubt, chain 2 of 2): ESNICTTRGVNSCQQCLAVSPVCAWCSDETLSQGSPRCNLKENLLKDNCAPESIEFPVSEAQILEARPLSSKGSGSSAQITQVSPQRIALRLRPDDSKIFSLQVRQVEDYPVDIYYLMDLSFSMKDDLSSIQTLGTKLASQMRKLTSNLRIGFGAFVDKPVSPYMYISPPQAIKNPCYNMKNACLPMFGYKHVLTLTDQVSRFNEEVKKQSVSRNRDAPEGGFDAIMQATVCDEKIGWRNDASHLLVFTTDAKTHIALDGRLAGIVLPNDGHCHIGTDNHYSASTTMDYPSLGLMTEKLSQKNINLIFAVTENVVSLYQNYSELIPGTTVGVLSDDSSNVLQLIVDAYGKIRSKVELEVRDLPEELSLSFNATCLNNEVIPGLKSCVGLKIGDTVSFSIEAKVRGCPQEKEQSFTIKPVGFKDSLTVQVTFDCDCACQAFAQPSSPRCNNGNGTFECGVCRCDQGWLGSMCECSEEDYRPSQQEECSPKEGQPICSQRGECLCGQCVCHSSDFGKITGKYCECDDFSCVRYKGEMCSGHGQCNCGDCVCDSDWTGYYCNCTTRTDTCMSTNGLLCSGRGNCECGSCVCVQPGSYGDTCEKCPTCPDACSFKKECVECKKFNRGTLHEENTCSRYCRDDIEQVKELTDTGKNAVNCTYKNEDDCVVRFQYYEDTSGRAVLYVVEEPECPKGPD
T10 sequence (P43406 31-1044, chain 1 of 2): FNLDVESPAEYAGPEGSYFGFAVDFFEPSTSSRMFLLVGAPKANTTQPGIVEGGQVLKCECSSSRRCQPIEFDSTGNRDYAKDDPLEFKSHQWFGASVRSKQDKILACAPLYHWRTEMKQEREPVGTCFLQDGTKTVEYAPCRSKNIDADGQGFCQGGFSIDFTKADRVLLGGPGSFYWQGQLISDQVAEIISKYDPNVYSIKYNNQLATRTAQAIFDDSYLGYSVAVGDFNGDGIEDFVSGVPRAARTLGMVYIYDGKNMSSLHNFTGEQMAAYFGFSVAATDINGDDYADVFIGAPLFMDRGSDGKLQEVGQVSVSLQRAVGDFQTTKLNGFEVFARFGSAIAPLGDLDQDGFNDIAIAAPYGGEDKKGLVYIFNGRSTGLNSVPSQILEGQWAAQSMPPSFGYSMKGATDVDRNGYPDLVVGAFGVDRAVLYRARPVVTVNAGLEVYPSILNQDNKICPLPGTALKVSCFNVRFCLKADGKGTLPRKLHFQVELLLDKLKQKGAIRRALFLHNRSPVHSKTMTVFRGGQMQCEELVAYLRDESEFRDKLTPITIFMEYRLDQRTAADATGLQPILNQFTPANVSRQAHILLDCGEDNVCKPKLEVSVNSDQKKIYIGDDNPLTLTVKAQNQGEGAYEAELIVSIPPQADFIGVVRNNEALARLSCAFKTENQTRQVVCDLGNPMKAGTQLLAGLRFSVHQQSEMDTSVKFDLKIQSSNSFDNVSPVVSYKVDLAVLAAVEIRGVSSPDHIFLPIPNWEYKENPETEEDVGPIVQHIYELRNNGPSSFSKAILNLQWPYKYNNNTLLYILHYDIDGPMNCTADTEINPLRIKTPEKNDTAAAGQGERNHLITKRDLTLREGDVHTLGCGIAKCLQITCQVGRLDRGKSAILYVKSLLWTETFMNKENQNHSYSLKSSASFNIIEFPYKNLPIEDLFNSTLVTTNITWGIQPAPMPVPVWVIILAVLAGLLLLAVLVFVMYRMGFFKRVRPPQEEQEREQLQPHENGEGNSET
T10 sequence (P09055 21-798, chain 2 of 2): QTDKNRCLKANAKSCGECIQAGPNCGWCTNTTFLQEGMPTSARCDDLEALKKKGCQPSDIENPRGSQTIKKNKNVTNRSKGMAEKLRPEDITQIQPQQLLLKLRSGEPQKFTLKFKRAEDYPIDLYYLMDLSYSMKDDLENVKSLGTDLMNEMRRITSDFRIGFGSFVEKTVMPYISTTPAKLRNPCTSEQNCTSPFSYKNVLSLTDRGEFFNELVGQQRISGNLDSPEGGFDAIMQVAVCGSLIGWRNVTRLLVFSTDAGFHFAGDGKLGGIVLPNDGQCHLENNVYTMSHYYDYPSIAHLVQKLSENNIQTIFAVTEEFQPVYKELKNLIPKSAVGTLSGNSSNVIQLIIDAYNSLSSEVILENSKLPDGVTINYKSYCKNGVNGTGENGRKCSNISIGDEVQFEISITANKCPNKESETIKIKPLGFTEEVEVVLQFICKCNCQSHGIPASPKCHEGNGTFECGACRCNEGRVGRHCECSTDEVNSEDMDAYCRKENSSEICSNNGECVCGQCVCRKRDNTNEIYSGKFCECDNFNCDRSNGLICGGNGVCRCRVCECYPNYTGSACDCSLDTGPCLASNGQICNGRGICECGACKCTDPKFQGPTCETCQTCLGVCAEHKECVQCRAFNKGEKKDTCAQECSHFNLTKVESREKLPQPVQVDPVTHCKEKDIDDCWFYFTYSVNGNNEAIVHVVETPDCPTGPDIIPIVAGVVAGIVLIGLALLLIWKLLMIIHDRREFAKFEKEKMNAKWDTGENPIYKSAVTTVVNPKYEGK

Row | Binder | Kd [1] [nM] | Kd [2] [nM] | Kd [3] [nM] | IC50 [4] [nM] | IC50 [5] [nM] | IC50 [6] [nM] | IC50 [7] [nM] | EC50 [8] [nM] | EC50 [9] [nM] | EC50 [10] [nM] | EC50 [11] [nM] | EC50 [12] [nM] | EC50 [13] [nM]
1 | B1 | 2.9 | 14 | 6.47 | 47.3 | 2.26 | 6.6 | 3.2 | 0.32 | 0.483 | 1.22 | 0.743 | 0.64 | 1.76
2 | B2 | 2.59 | 7.4 | 6.14 | 34.1 | 2.41 | 6.7 | 4.3 | 0.335 | 0.438 | 0.597 | 0.609 | 0.508 | 0.131
3 | B3 | 3.03 | 6.75 | 5.29 | 43.1 | 3.15 | 6.8 | 4.2 | 0.23 | 0.323 | 0.495 | 0.593 | 0.335 | 0.03
4 | B4 | 2.45 | 12.7 | 5.07 | 31.1 | 1.27 | 4.5 | 9.2 | 0.702 | 0.417 | – | 2.84 | 2.84 | –
5 | B5 | 4.11 | 2.7 | 6.58 | 9.46 | 2.57 | 3.4 | 3.4 | 0.198 | 0.861 | 0.166 | 1.09 | 0.285 | 0.213
